{"source": "patent US20080286275A1", "about": "(ISTITUTO DI RICERCHE DI BIOLOGIA MOLECOLARE P ANGELETTI S P …, published 2008)", "binders": {"B1": {"name": "IgG4 molecule containing SEQ ID NO: 4 variable regions (antibody, V domains shown)", "VH": "EVQLVQSGAEVRKPGTAVKISCKVAGDTFTDYFIYWLQQAPGKGPEWMGLIDPKDAQTIYAEKFQGRVAITADTSTDTAYMELSSLKSEDTAVYYCATDSVGSAGFDVWGQGTLVTVSS", "VL": "LPVLTQPPSASGAPGQRVTFSCSGSGSNIGSYTVNWYQQLPGAAPRLLMHTTDQRASGVPDRFSGSKSGTSASLAITGLQSEDEADYFCAAWDDSLDGPVFGGGTKLTVL", "notes": "The primers may have added amino acids"}, "B2": {"name": "single-chain antibody of SEQ ID NO: 1 (scFv)", "scFv": "EVQLVQSGAEVRKPGATVKISCKLTGDTFTDYFIFWLQLAPGKGLQWMGLIDPKDAQTIYAEKFQGRVAITADTSTDTAYMEVSSLRSEDTAVYYCATDSVGAAGFDVWGRGTMVTVSSGGGGSGGGGSGGGGSALPVLTQPPSASGAPGQRVTFSCSGSGSNIGSYTVNWYQQLPGAAPRLLMHTTDQRASGAPDRFSGSKSGTSASLAITGLQSEDEADYFCAAWDDSLDGPVFGGGTKLTVL", "notes": "VH-linker(Ser/Gly)-VL from the CAT phage library CS, produced outside the phage context"}, "B3": {"name": "single-chain antibody of SEQ ID NO: 3 (scFv)", "scFv": "EVQLVETGAEVKKPGSSVKVSCKASGDTLSSHAIIWVRQAPGQGLEWMGGIIPIFRTVNYAQKFQGRVTITADDSTSTAYMELNDLRSEDTAVYYCAKTLNEGLPWDYWGQGTLVTVSSGGGGSGGGGSGGGGSAQSVLTQPPGASGAPGQRVTISCSGDSSNIESYAVNWYQQVPGMAPKLLIYRDNQRPSGVPDRFSGSRSGTSASLAISGLQSEDEADYYCGSWDDNLNGPTFGGGTKVTVL", "notes": "as for B2"}, "B4": {"name": "single-chain antibody of SEQ ID NO: 2 (scFv)", "scFv": "QVQLQESGPGLVKPSETLSLNCTVSGGSISSSSYYWGWIRQPPGKGLEWIGSVYYTGNTYYNPSLKSRVTMSVDTSKNQFSLKLNSVTAADTAVYYCARHVLGGGWEVSQRFDYWGRGTLVTVSSGGGGSGGGGSGGGGSAQSVLTQPPSASGTPGQRVTISCSGSSSNIGSNPVNWYQQLPGTAPKLLIHTNNQRPSGVPDRFSGSKSGTSASLAISGLLSEDEADYYCAAWDDSLNAYVFGTGTKVTVL", "notes": "VH-linker(Ser/Gly)-VL from the CAT phage library CS, produced outside the phage context; also called scFVC11"}, "B5": {"name": "single-chain antibody of SEQ ID NO: 4 (scFv)", "scFv": "EVQLVQSGAEVRKPGTAVKISCKVAGDTFTDYFIYWLQQAPGKGPEWMGLIDPKDAQTIYAEKFQGRVAITADTSTDTAYMELSSLKSEDTAVYYCATDSVGSAGFDVWGQGTLVTVSSGGGGSGGGGSGGGGSALPVLTQPPSASGAPGQRVTFSCSGSGSNIGSYTVNWYQQLPGAAPRLLMHTTDQRASGVPDRFSGSKSGTSASLAITGLQSEDEADYFCAAWDDSLDGPVFGGGTKLTVL", "notes": "as for B2"}, "B6": {"name": "IgG4 molecule containing SEQ ID NO: 2 variable regions (antibody, V domains shown)", "VH": "QVQLQESGPGLVKPSETLSLNCTVSGGSISSSSYYWGWIRQPPGKGLEWIGSVYYTGNTYYNPSLKSRVTMSVDTSKNQFSLKLNSVTAADTAVYYCARHVLGGGWEVSQRFDYWGRGTLVTVSS", "VL": "not shown", "notes": "as for B1"}}, "key": {"[1]": {"target": "T1, human scavenger receptor class B type I (SR-B1) (human, UniProt Q8WTV0 1-467)", "T1 construct": "The same entry is used for all three; also called SR-BI; SR-B1 receptor", "T1 sequence": "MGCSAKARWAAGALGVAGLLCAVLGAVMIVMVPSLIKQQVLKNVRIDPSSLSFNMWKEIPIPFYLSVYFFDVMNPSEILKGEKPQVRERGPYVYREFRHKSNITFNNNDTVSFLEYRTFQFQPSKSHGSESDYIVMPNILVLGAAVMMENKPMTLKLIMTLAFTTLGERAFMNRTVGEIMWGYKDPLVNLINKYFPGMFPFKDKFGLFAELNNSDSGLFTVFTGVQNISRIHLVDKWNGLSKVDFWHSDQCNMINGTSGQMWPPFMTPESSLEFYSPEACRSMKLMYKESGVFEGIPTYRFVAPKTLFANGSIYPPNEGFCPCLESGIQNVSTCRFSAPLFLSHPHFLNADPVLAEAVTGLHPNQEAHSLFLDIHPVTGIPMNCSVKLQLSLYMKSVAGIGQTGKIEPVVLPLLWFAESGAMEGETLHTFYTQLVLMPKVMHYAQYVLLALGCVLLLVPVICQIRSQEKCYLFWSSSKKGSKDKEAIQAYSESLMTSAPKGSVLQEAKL", "test": "FACS competition on Cho7s cells expressing human SR-B1, IgG concentration varied (60-12-2.4 µg/ml), competitor His-tagged soluble E2"}, "[2]": {"target": "T1, human scavenger receptor class B type I …", "test": "FACS competition on HepG2 cells, scFv concentration varied, competitor soluble E2"}}, "data": [{"binder": "B1", "values": [{"measurement": "binding result", "setting": "[1]", "value": "binds"}]}, {"binder": "B2", "values": [{"measurement": "binding result", "setting": "[2]", "value": "binds"}]}, {"binder": "B3", "values": [{"measurement": "binding result", "setting": "[2]", "value": "binds"}]}, {"binder": "B4", "values": [{"measurement": "binding result", "setting": "[2]", "value": "binds"}]}, {"binder": "B5", "values": [{"measurement": "binding result", "setting": "[2]", "value": "binds"}]}, {"binder": "B6", "values": [{"measurement": "binding result", "setting": "[1]", "value": "binds"}]}]}
